# Measured values from article PMC9190012, “Heparin activation of protein Z-dependent protease inhibitor (ZPI) allosterically blocks protein Z activation through an extended heparin-binding site” (The Journal of Biological Chemistry, 2022).
# Residue numbers refer to the chain shown, from its start. Names and notes keep the numbering of the source.
# B1: D293A: ZPI mutant in the PZ-binding site hot spot residue (protein, UniProt Q9UK55 22-444, looked up, variant D293A)
# Protein Z-dependent protease …: LAPSPQSPETPAPQNQTSRVVQAPKEEEEDEQEASEEKASEEEKAWLMASRQQLAKETSNFGFSLLRKISMRHDGNMVFSPFGMSLAMTGLMLGATGPTETQIKRGLHLQALKPTKPGLLPSLFKGLRETLSRNLELGLTQGSFAFIHKDFDVKETFFNLSKRYFDTECVPMNFRNASQAKRLMNHYINKETRGKIPKLFDEINPETKLILVDYILFKGKWLTPFDPVFTEVDTFHLDKYKTIKVPMMYGAGKFASTFDKNFRCHVLKLPYQGNATMLVVLMEKMGDHLALEAYLTTDLVETWLRNMKTRNMEVFFPKFKLDQKYEMHELLRQMGIRRIFSPFADLSELSATGRNLQVSRVLQRTVIEVDERGTEAVAGILSEITAYSMPPVIKVDRPFHFMIYEETSGMLLFLGRVVNPTLL
# B2: K260A/R263A: ZPI helix H site double mutant (protein, UniProt Q9UK55 22-444, looked up, variant K260A R263A)
# Protein Z-dependent protease …: B1 Protein Z-dependent protease … with K260A, R263A, A293D
# B3: R310A: ZPI helix H site mutant (protein, UniProt Q9UK55 22-444, looked up, variant R310A)
# Protein Z-dependent protease …: B1 Protein Z-dependent protease … with A293D, R310A
# B4: K260A/R263A/K308A/R310A: ZPI helix H site quadruple mutant (protein, UniProt Q9UK55 22-444, looked up, variant K260A R263A K308A R310A)
# Protein Z-dependent protease …: B1 Protein Z-dependent protease … with K260A, R263A, A293D, K308A, R310A
# B5: WT: recombinant wild-type protein Z-dependent protease inhibitor (serpin A10) expressed in Escherichia coli (protein, UniProt Q9UK55 22-444, looked up)
# Protein Z-dependent protease …: B1 Protein Z-dependent protease … with A293D
# B6: K308A: ZPI helix H site mutant (protein, UniProt Q9UK55 22-444, looked up, variant K308A)
# Protein Z-dependent protease …: B1 Protein Z-dependent protease … with A293D, K308A
# B7: R305A: ZPI helix H site mutant (protein, UniProt Q9UK55 22-444, looked up, variant R305A)
# Protein Z-dependent protease …: B1 Protein Z-dependent protease … with A293D, R305A
# Molecular target: T1, FXa (Homo sapiens, UniProt P00742)
# T1 construct: purchased Enzyme Research Laboratories
# Assay: Unaccelerated ZPI–FXa reactions: kinetics and stoichiometry of inhibition
# Format: biochemical
# Details: not given
# Method: (§1) Apparent second-order rate constants for unaccelerated and H50-accelerated ZPI–FXa reactions were measured in the absence and presence of the optimal H50 concentration under pseudo–first-order conditions by analyzing full ZPI–FXa reaction progress curves over the ZPI concentration range of 10 to 900 nM with ∼0.5 nM FXa. Full reaction progress curves were also measured for ZPI–FXa reactions in the presence of PZ equimolar with ZPI, 25 μM lipid, and 5 mM CaCl2, as a function of the ZPI concentration in the range of 10 to 40 nM. Identical reaction mixtures were quenched at varying reaction times with substrate, and the time course of protease inactivation was measured from the decrease in initial rates of substrate hydrolysis. The first-order rate of decrease in protease activity with time was computer fit by a single exponential decay function with a nonzero end point and kobs obtained from the fitted exponential decay constant. Apparent second-order association rate constants (ka,app) were obtained from the slopes of linear plots of kobs versus the ZPI concentration according to the equation, kobs=kd+ka,app × [ZPI]0
# (§2) In which kd represents the rate constant for ZPI–FXa complex dissociation and [ZPI]o is the total ZPI concentration. kd was fixed at the experimentally determined value of 10^−4 s^−1 for WT and ZPI mutants as described ([18]).
# (§3) Fixed concentrations of FXa (50–100 nM FXa) were reacted with increasing concentrations of ZPI, ranging from a approximately threefold to sevenfold molar excess, in the absence of cofactors or in the presence of either 1 μM H50 or PZ equimolar with ZPI, 25 μM lipid, and 5 mM CaCl2, in kinetics buffer at 25 °C in reaction volumes of 50 μl. After allowing sufficient time to reach a reaction end point, based on measured second-order associate rate constants (∼5–30 min), remaining proteolytic activity was measured by reacting an aliquot (5–20 μl) of the reaction mixtures with 1 ml of 100 μM Spectrozyme fXa (American Diagnostica) containing 50 μg/ml Polybrene and 5 mM EDTA and monitoring the rate of absorbance change at 405 nm. The apparent SI was determined from the fitted abscissa intercept of a linear plot of residual protease activity against the molar ratio of inhibitor to protease ([18]). Because the ZPI–PZ complex dissociates to a small extent over the reaction time, apparent SIs depend on the time of incubation. To correct for such complex dissociation, apparent SIs were multiplied by the factor, exp (−kd × t), where kd is the measured complex dissociation rate constant of 10^−4 s^−1 and t the fixed reaction time. Simulations verified the validity of this correction for small extents of dissociation. Reported SIs are average values of at least two independent measurements at different reaction times.
# T1 sequence (P00742 235-488 limits assumed): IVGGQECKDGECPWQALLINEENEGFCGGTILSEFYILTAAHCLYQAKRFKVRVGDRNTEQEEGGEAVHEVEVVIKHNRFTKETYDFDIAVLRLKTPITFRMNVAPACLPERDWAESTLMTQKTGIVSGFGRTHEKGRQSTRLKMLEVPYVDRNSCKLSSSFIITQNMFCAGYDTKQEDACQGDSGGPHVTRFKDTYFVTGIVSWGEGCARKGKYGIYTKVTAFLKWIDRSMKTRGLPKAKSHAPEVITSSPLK
# T1 sequence (P00742 41-179 limits assumed): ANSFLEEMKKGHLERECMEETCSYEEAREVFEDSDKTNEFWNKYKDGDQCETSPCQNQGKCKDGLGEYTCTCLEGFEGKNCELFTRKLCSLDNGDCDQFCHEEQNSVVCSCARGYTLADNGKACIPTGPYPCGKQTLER
Molecule,SI,"ka,app × SI","ka,app × SI relative to WT"
B1,2.6 ± 0.1 moles ZPI/mole FXa,1.1 ± 0.1 × 10^4 M^−1 s^−1,(0.69)
B2,2.4 ± 0.5 moles ZPI/mole FXa,1.3 ± 0.4 × 10^4 M^−1 s^−1,(0.81)
B3,2.7 ± 0.2 moles ZPI/mole FXa,1.0 ± 0.2 × 10^4 M^−1 s^−1,(0.62)
B4,4.0 ± 0.8 moles ZPI/mole FXa,4.5 ± 1.8 × 10^3 M^−1 s^−1,(0.28)
B5,2.8 ± 0.4 moles ZPI/mole FXa,1.6 ± 0.3 × 10^4 M^−1 s^−1,(1)
B6,2.9 ± 0.2 moles ZPI/mole FXa,1.7 ± 0.1 × 10^4 M^−1 s^−1,(1.1)
B7,2.4 ± 0.2 moles ZPI/mole FXa,1.8 ± 0.2 × 10^4 M^−1 s^−1,(1.1)

# Same assay, conditions: absence of PZ, 2.5 mM CaCl2, pH 7.4, 25 °C
row,Molecule,"ka,app"
1,B1,4.1 ± 0.2 × 10^3 M^−1 s^−1
2,B2,5.4 ± 0.3 × 10^3 M^−1 s^−1
3,B3,3.8 ± 0.3 × 10^3 M^−1 s^−1
4,B4,1.1 ± 0.2 × 10^3 M^−1 s^−1
5,B5,5.6 ± 0.3 × 10^3 M^−1 s^−1
6,B6,5.8 ± 0.1 × 10^3 M^−1 s^−1
7,B7,7.3 ± 0.4 × 10^3 M^−1 s^−1

# Molecular target: T1, FXa
# Assay: PZ-accelerated ZPI–FXa reactions: kinetics and stoichiometry of inhibition
# Format: biochemical
# Details: PZ-accelerated
# Method: as §1, §2, §3
Molecule,SI,"ka,app × SI","ka,app × SI relative to WT"
B2,2.6 ± 0.3 moles ZPI/mole FXa,1.5 ± 0.2 × 10^7 M^−1 s^−1,(0.34)
B3,2.9 ± 0.2 moles ZPI/mole FXa,2.7 ± 0.6 × 10^7 M^−1 s^−1,(0.61)
B4,6.6 ± 0.4 moles ZPI/mole FXa,2.7 ± 0.4 × 10^7 M^−1 s^−1,(0.61)
B5,4.0 ± 0.3 moles ZPI/mole FXa,4.4 ± 0.3 × 10^7 M^−1 s^−1,(1.0)
B6,2.7 ± 0.1 moles ZPI/mole FXa,2.6 ± 0.1 × 10^7 M^−1 s^−1,(0.59)
B7,3.3 ± 0.1 moles ZPI/mole FXa,3.2 ± 0.4 × 10^7 M^−1 s^−1,(0.73)

# Same assay, conditions: equimolar PZ, 25 μM phospholipid, 5 mM CaCl2, pH 7.4, 25 °C
row,Molecule,"ka,app"
1,B2,5.6 ± 0.2 × 10^6 M^−1 s^−1
2,B3,9.4 ± 1.4 × 10^6 M^−1 s^−1
3,B4,4.1 ± 0.3 × 10^6 M^−1 s^−1
4,B5,10.9 ± 0.1 × 10^6 M^−1 s^−1
5,B6,9.5 ± 0.1 × 10^6 M^−1 s^−1
6,B7,9.8 ± 1.0 × 10^6 M^−1 s^−1

# Same assay, conditions: ratio of PZ-accelerated to unaccelerated ka,app × SI
row,Molecule,PZ enhancement
1,B1,greatly abrogated the acceleration
2,B2,1153
3,B3,2700
4,B4,6000
5,B5,2750
6,B6,1524
7,B7,1778

# Molecular target: T1, FXa
# Assay: H50 heparin-accelerated ZPI–FXa reactions: kinetics and stoichiometry of inhibition
# Format: biochemical
# Details: 1 μM H50
# Method: Heparin accelerating effects on the kinetics of ZPI–FXa reactions were evaluated as a function of heparin concentration under pseudo–first-order conditions (i.e., with a large molar excess of inhibitor over protease) by incubating reaction mixtures of 100 μl containing 70 nM ZPI and ∼0.5 nM FXa in the absence or presence of varying levels of H50 ranging from 10^−9 to 10^−4 M in 20 mM Tris buffer (pH 7.4), 0.1 M NaCl, 0.1% PEG 8000, 0.1 mg/ml BSA, and 2.5 mM CaCl2 at 25 °C for reaction times of 2 to 5 min. Reactions were quenched by adding 1 ml of 50 μM Pefafluor FXa substrate (Centerchem, Inc) containing 50 μg/ml polybrene and 5 mM EDTA. The initial linear rate of substrate hydrolysis was monitored at an excitation wavelength of 380 nm and an emission wavelength of 440 nm. The observed pseudo–first-order rate constant for reactions (kobs) was calculated from the equation, kobs=In([vo-v∞]/[vt-v∞])/t
# where vt and v∞ are the initial velocities of protease hydrolysis of the substrate after reaction with ZPI for the fixed reaction time and after reaching the reaction end point, respectively, vo is the velocity measured in control reactions without ZPI, and t is the fixed reaction time. The dependence of kobs on heparin concentration was computer fit by nonlinear least squares analysis by the ternary complex bridging model equation ([10]).
# as §1, §2
# as §3, with “Simulations verified the validity of this correction for small extents of dissociation. Reported SIs are average values of at least two independent measurements at different reaction times.” left out
Molecule,SI,"ka,app × SI","ka,app × SI relative to WT"
B1,1.7 ± 0.1 moles ZPI/mole FXa,8.5 ± 0.6 × 10^5 M^−1 s^−1,(0.71)
B2,2.5 ± 0.4 moles ZPI/mole FXa,2.9 ± 0.8 × 10^5 M^−1 s^−1,(0.24)
B3,1.9 ± 0.2 moles ZPI/mole FXa,3.5 ± 0.5 × 10^5 M^−1 s^−1,(0.29)
B4,4.1 ± 0.6 moles ZPI/mole FXa,7.6 ± 1.3 × 10^4 M^−1 s^−1,(0.06)
B5,2.4 ± 0.1 moles ZPI/mole FXa,1.2 ± 0.2 × 10^6 M^−1 s^−1,(1)
B6,2.2 ± 0.3 moles ZPI/mole FXa,5.4 ± 0.9 × 10^5 M^−1 s^−1,(0.45)
B7,1.8 ± 0.1 moles ZPI/mole FXa,5.3 ± 0.9 × 10^5 M^−1 s^−1,(0.44)

# Same assay, conditions: 1 μM H50, 2.5 mM CaCl2, pH 7.4, 25 °C
row,Molecule,"ka,app"
1,B1,5.0 ± 0.2 × 10^5 M^−1 s^−1
2,B2,1.2 ± 0.1 × 10^5 M^−1 s^−1
3,B3,1.8 ± 0.1 × 10^5 M^−1 s^−1
4,B4,1.8 ± 0.1 × 10^4 M^−1 s^−1
5,B5,5.1 ± 0.4 × 10^5 M^−1 s^−1
6,B6,2.4 ± 0.1 × 10^5 M^−1 s^−1
7,B7,2.9 ± 0.3 × 10^5 M^−1 s^−1

# Same assay, conditions: ratio of heparin-accelerated to unaccelerated ka,app × SI
row,Molecule,H50 rate enhancement
1,B2,~22 fold
2,B3,~35 fold
3,B4,~17 fold
4,B5,~75 fold
5,B6,~32 fold
6,B7,~29 fold
